Laboratory results as given in doi:10.1101/2025.08.30.673307 (bioRxiv, 2025).

Biological target: the molecule itself
Assay: cryo-EM structure

B1: stomatin (STOM) fused at its C terminus with a Twin-Strep tag (natural protein, human, UniProt P27105 1-288, looked up)
chain: MAEKRHTRDSEAQRLPDSFKDSPSKGLGPCGWILVAFSFLFTVITFPISIWMCIKIIKEYERAIIFRLGRILQGGAKGPGLFFILPCTDSFIKVDMRTISFDIPPQEILTKDSVTISVDGVVYYRVQNATLAVANITNADSATRLLAQTTLRNVLGTKNLSQILSDREEIAHNMQSTLDDATDAWGIKVERVEIKDVKLPVQLQRAMAAEAEASREARAKVIAAEGEMNASRALKEASMVITESPAALQLRYLQTLTTIAAEKNSTIVFPLPIDMLQGIIGAKHSHLG
stoichiometry N: 16 subunits
